First the molecules themselves.
B1: Plasmodesmata-located protein 5 (PDLP5), EGFP or mCherry fusion [Arabidopsis thaliana] / itself (parent)
chain: SPTDNYIYAVCSPAKFSPSSGYETNLNSLLSSFVTSTAQTRYANFTVPTGKPEPTVTVYGIYQCRGDLDPTACSTCVSSAVAQVGALCSNSYSGFLQMENCLIRYDNKSFLGVQDKTLILNKCGQPMEFNDQDALTKASDVIGSLGTGDGSYRTGGNGNVQGVAQCSGDLSTSQCQDCLSDAIGRLKSDCGMAQGGYVYLSKCYARFSVGGSHARQTPGPNFGHEGEKGNKDDNGVGKTLAIIIGIVTLIILLVVFLAFVGKCCRKLQDEKWCK
B2: Plasmodesmata-located protein 5 (PDLP5), EGFP or mCherry fusion [Arabidopsis thaliana] / Plasmodesmata-located protein 5 (PDLP5), EGFP or mCherry fusion [Arabidopsis thaliana] (parent)
chain 1: B1 chain
chain 2: B1 chain

One assay covers variants of B1. The experiment in a line: FRET. Particulars: with itself; at plasmodesmata; EGFP-fused donor and mCherry-fused acceptor; n=12; parent: 20; read off a plot.
chain 1 A241V G245V: the response (% FRET efficiency) came out at 17.

The variants in another assay derive from B2. The experiment in a line: FRET. Particulars: with Plasmodesmata-located protein 5 (PDLP5), at plasmodesmata, PDLP5-EGFP donor and PDLP5VV-mCherry acceptor, n=21, parent: 20, read off a plot.
As for chain 1 A241V G245V, the response (% FRET efficiency) stood at 16.

Staying with this assay, now noted: with Plasmodesmata-located protein 5 (PDLP5), at plasmodesmata, PDLP5VV-EGFP donor and PDLP5-mCherry acceptor, n=15, parent: 20, read off a plot.
In the case of chain 1 A241V G245V, the response (% FRET efficiency) stood at 19.
